Target: T1, MGF (mammary gland factor, STAT5), native from lactating mammary gland (Ovis aries, UniProt P42231 SEQ:1-794)
T1 chain: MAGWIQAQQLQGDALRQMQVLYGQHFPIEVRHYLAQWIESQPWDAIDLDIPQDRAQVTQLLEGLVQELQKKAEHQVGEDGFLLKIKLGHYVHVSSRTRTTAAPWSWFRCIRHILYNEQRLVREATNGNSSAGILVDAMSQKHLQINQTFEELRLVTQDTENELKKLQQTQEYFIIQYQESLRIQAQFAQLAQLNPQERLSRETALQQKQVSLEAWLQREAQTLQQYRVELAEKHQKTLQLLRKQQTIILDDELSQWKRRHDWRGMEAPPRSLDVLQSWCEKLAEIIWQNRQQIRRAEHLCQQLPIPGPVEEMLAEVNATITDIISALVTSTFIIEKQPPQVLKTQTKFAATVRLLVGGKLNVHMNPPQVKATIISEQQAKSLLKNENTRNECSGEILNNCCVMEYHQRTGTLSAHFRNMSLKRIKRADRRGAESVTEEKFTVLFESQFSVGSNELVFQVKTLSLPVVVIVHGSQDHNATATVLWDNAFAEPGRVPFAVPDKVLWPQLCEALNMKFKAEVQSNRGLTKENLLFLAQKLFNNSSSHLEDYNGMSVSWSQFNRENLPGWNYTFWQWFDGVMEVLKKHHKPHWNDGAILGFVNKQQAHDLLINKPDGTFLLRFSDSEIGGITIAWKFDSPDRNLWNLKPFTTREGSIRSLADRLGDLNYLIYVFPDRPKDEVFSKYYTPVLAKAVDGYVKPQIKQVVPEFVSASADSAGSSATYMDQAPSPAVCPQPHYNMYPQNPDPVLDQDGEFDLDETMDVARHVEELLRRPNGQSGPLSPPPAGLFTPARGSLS
Experiment: EMSA; binds more efficiently than rat site; also used for DNA affinity column, eluted at 600 mM NaCl; binding abolished by tyrosine phosphatase PTP1B, not by PP1C or
Conditions: tags: none; 84 and 92 kDa bands, tyrosine phosphorylated

B1: bovine beta-casein MGF site (dsDNA)
DNA 1: AGATTTCTAGGAATTCAATCC
DNA 2: GGATTGAATTCCTAGAAATCT
B1: binds.

From patent US5534409, “Cytokine regulated transcription factor” (Ciba-Geigy Corporation)
